Reference: patent US20220003777

How the values were obtained:
[1] = molecular target: T1, fetuin, P12763
T1 chain: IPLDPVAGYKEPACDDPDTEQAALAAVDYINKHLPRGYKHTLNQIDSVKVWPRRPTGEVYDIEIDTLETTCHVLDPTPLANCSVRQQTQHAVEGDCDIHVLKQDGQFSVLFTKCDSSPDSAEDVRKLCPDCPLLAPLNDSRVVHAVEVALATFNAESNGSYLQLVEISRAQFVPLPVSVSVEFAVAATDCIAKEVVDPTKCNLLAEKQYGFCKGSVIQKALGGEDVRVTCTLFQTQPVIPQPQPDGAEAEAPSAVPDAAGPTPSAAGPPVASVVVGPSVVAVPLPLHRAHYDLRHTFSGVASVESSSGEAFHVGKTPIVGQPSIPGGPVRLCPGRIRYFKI

[2] = molecular target: T2, synthetic glycopeptide RPPIT*QSSL
T2 chain: RPPITQSSL

[3] = molecular target: T3, PSGL-1, recombinant, Q14242
T3 chain: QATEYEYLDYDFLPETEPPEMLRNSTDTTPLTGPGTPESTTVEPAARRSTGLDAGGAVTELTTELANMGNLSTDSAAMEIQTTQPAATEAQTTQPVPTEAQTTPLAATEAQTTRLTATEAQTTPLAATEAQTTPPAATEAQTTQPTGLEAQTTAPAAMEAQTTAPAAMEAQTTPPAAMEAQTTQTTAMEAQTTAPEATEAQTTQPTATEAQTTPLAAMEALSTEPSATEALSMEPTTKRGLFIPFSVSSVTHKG

[4] = molecular target: T4, CD43, recombinant, P16150
T4 chain: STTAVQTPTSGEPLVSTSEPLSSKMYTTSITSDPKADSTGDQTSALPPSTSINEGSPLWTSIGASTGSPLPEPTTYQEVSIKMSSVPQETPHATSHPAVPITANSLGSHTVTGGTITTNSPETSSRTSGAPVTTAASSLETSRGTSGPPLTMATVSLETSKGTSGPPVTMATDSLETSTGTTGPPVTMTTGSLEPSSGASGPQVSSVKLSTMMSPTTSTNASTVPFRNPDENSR

[5] = molecular target: bovine serum albumin, P02769
[6] = molecular target: MUC16, native human (cell lines, cell lysates and supernatants, cancer patient ascites), Q8WXI7
[7] = molecular target: T5, podocalyxin, recombinant, O00592
T5 chain: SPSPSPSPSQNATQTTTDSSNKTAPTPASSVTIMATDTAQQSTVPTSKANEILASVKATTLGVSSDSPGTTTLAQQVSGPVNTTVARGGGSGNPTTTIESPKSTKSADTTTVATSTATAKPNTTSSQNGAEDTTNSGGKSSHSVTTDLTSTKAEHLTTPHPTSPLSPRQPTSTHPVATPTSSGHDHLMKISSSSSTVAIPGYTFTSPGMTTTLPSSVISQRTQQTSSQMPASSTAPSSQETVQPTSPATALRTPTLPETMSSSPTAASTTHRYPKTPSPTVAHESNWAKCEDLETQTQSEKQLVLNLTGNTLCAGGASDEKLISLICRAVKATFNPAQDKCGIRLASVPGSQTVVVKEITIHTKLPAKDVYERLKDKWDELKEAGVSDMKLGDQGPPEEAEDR

[8] = molecular target: T6, recombinant human MUC16, Q8WXI7
T6 chain: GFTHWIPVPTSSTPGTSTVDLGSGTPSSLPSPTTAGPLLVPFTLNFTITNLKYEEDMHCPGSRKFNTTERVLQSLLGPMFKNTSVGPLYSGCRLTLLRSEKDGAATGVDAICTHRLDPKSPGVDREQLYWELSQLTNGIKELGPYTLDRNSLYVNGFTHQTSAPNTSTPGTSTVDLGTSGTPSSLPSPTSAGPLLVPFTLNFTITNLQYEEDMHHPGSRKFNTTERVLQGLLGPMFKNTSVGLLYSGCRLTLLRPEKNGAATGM

[9] = molecular target: T7, CD45, recombinant, P08575
T7 chain: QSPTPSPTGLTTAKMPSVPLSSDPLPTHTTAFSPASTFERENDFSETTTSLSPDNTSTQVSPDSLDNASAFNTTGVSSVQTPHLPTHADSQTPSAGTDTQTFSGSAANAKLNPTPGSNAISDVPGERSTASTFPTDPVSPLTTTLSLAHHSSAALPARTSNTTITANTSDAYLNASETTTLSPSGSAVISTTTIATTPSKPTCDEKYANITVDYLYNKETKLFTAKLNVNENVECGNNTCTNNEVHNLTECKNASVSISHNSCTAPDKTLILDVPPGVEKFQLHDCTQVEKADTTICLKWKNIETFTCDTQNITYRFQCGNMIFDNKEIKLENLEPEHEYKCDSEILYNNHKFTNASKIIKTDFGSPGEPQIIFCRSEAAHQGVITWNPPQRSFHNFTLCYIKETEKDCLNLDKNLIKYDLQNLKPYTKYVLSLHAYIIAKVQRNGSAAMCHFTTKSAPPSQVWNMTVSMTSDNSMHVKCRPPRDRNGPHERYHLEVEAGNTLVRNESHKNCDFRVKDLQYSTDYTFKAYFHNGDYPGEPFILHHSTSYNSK

[10] = molecular target: T8, C1 esterase inhibitor, human plasma-derived, P05155
T8 chain: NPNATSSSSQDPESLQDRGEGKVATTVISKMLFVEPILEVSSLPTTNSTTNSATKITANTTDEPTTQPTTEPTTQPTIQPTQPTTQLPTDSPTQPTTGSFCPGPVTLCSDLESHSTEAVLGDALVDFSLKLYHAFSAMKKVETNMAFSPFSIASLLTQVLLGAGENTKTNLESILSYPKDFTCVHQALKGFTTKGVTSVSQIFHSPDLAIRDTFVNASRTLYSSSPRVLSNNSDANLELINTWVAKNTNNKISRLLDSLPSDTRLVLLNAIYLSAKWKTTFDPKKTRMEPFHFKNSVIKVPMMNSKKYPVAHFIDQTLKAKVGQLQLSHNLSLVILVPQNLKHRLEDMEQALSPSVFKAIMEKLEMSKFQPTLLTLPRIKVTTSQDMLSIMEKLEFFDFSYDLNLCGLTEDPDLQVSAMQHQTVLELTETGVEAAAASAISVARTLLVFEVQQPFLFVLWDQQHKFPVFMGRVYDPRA

[11] = molecular target: T9, Syncam-1, recombinant, Q9BY67
T9 chain: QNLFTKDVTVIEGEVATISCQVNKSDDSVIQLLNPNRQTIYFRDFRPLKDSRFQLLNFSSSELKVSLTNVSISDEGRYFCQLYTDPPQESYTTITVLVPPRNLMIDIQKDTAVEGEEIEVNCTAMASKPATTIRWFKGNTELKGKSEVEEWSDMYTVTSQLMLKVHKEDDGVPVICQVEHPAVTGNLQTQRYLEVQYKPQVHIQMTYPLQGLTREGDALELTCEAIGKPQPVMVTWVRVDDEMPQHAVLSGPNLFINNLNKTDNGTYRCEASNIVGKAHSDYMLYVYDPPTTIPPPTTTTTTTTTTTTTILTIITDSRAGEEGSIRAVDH

bovine serum albumin, P02769, sequence (P02769 25-607): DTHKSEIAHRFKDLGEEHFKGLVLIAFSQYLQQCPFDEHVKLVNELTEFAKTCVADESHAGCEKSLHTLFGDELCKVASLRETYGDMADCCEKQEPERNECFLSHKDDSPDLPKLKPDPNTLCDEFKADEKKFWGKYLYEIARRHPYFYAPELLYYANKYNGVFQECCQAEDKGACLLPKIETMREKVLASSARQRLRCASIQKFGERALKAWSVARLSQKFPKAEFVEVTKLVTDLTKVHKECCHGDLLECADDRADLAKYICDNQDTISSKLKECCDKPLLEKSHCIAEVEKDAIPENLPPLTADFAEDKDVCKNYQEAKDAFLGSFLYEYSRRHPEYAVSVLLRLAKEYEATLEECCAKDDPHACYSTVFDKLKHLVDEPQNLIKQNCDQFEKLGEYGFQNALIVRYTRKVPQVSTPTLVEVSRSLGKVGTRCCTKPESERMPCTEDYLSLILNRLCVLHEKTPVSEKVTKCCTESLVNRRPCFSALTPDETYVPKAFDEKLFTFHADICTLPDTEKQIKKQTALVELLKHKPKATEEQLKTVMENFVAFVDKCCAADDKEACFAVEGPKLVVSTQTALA

B1: Secreted Protease of C1 Esterase Inhibitor (StcE), recombinant N-terminal His-tagged (protein)
chain: ADNNSAIYFNTSQPINDLQGSLAAEVKFAQSQILPAHPKEGDSQPHLTSLRKSLLLVRPVKADDKTPVQVEARDDNNKILGTLTLYPPSSLPDTIYHLDGVPEGGIDFTPHNGTKKIINTVAEVNKLSDASGSSIHSHLTNNALVEIHTANGRWVRDIYLPQGPDLEGKMVRFVSSAGYSSTVFYGDRKVTLSVGNTLLFKYVNGQWFRSGELENNRITYAQHIWSAELPAHWIVPGLNLVIKQGNLSGRLNDIKIGAPGELLLHTIDIGMLTTPRDRFDFAKDKEAHREYFQTIPVSRMIVNNYAPLHLKEVMLPTGELLTDMDPGNGGWHSGTMRQRIGKELVSHGIDNANYGLNSTAGLGENSHPYVVAQLAAHNSRGNYANGIQVHGGSGGGGIVTLDSTLGNEFSHEVGHNYGLGHYVDGFKGSVHRSAENNNSTWGWDGDKKRFIPNFYPSQTNEKSCLNNQCQEPFDGHKFGFDAMAGGSPFSAANRFTMYTPNSSAIIQRFFENKAVFDSRSSTGFSKWNADTQEMEPYEHTIDRAEQITASVNELSESKMAELMAEYAVVKVHMWNGNWTRNIYIPTASADNRGSILTINHEAGYNSYLFINGDEKVVSQGYKKSFVSDGQFWKERDVVDTREARKPEQFGVPVTTLVGYYDPEGTLSSYIYPAMYGAYGFTYSDDSQNLSDNDCQLQVDTKEGQLRFRLANHRANNTVMNKFHINVPTESQPTQATLVCNNKILDTKSLTPAPEGLTYTVNGQALPAKENEGCIVSVNSGKRYCLPVGQRSGYSLPDWIVGQEVYVDSGAKAKVLLSDWDNLSYNRIGEFVGNVNPADMKKVKAWNGQYLDFSKPRSMRVVYK
- cleavage of substrate (gel shift) [1]: did not cleave
- cleavage of synthetic glycopeptide (MS) [2]: StcE cleaved a synthetic peptide containing a single GalNAc
- cleavage of substrate (gel shift) [3]: cleaved all tested mucin-like glycoproteins
- cleavage of substrate (gel shift) [4]: cleaved all tested mucin-like glycoproteins
- cleavage of substrate (gel shift) [5]: did not cleave
- cleavage in ascites fluid (anti-MUC16 Western blot) [6]: dose-dependent decrease in apparent molecular weight
- cleavage of substrate (gel shift) [7]: cleaved all tested mucin-like glycoproteins
- cleavage of substrate (gel shift) [8]: cleaved all tested mucin-like glycoproteins
- cleavage of substrate (gel shift) [9]: cleaved all tested mucin-like glycoproteins
- cleavage of substrate (SDS-PAGE, glycoprotein stain) [10]: active against C11NH
- cleavage of substrate (gel shift) [11]: cleaved all tested mucin-like glycoproteins
